Test results: the nanobody polyreactivity screen of Harvey et al. (2022)

experiment: yeast display, Sf9 membrane polyspecificity reagent, FACS + sequencing; frameworks hold sequencing errors
In short: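 Synthetic nanobody libraries on Saccharomyces cerevisiae BJ5465 were galactose-induced for 36–48 hours, stained 1 hour at 4 °C with 10% biotinylated, detergent-solubilized Sf9 membrane reagent and enriched on streptavidin microbeads. FACS then separated cells into low and high (top ~1%) gates by anti-HA (expression) and streptavidin (reagent binding) fluorescence. Genes were colony-PCR amplified, MiSeq 2 × 250 sequenced and CDR-length filtered. A clone's polyreactivity label is that of its gate of origin.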

Row | Sequence | polyreactivity (PSR sort gate)
1 | QVQLVESGGGLVQAGGSLRLSCAASGNTFWQYAMGWYRQAPGKERELVAAITRSTGSTYYADSVKGRFTISRDNAKNTVYLQMNSLKPEDTAVYYCAADFYRHYFRVDSWGQGTQVTVSS | low polyreactivity
2 | QVQLVESGGGLVQAGGSLRLSCAASGNTFWRYTMGWYRQAPGKERELVAAISSSGGSTYYADSVKGRFTISRDNAKNTVYLQMNSLKPEDTAVYYCAAERRLYKIFSYGYWGQGTQVTVSS | high polyreactivity
3 | QVQLVESGGGLVQAGGSLRLSCAASGNTFYANTMGWYRQARNERELVAAITSGTYADSVKGRFTISRDNAKNTVYLQMNSQKPEDTAVYYCAREESLYVTDPGPSKLDYWGQGTQVTVSS | low polyreactivity
4 | QVQLVESGGGLVQAGGSLRLSCAASGNTFYAYAMGWYRQAPGKERELVAAIARGGNTYYADSVKGRFTISRDNAKNTVYLQMNSLKPEDTAVYYCHAYYPIRSSPYGYYYWGQGTQVTVSS | high polyreactivity
5 | QVQLVESGGGLVQAGGSLRLSCAASGNTFYGYAMGWNRQAPGKERELVASITLSGDSTYYADSVKGRFTISRDNEKNTVYLQMNSLKPEDTAVYDCAGVYTYPLGYYHYTYDYWGQGTQVTVSS | low polyreactivity
6 | QVQLVESGGGLVQAGGSLRLSCAASGNTFYPNAMGWYRQAPGKERELVAAITTSGGTTYYADSVKGRFTISRDNAKNTVYLQMNSLKPEDTAVYYCAAYWSRDKYDYWGQGTQVTVSS | low polyreactivity
7 | QVQLVESGGGLVQAGGSLRLSCAASGNTFYRYAMGWYRQAPGKERELVAAISWSGSSTYYADSVKGRFTISRDNAKNTVYLQMNSLKPEDTAVYYCAVYYTRIGPRYDYWGQGTQVTVSS | high polyreactivity
8 | QVQLVESGGGLVQAGGSLRLSCAASGNTFYSYAMGWYRQAPGKERELVAAITWGGRRKFADSVKGRFTSSRDNAKITVYLQMNSLKPEDTAVYYCAARLFHGKTKFDYSGQGTQVTVSS | high polyreactivity
9 | QVQLVESGGGLVQAGGSLRLSCAASGNTFYVYAMGWYRQAPGKERELVADITWSGGSTYYADSVKGRFTISRDNAKNTVYLQMNSLKPEDTAVYYCNADYYYQLWELEYYYWGQGTQVTVSS | high polyreactivity
10 | QVQLVESGGGLVQAGGSLRLSCAASGNTIHWNFMGWYRQATGKERELVATITFSGSSTYYADSVKGRFTISRDNAKNTVYLQMNSLKPEDTAVYYCAKDFLGDGTSIEYGGSEYDYWGQGTQVTVSS | low polyreactivity
11 | QVQLVESGGGLVQAGGSLRLSCAASGNTINVNTMGWYRQAPGKERDLVAAISKRGGSTYYADSVKGRFTISRDNAKNTVYLQMNSLKPEDTAVYYCDKQVSLPRYHYGSAPYGYWGQGTQVTVSS | high polyreactivity
12 | QVQLVESGGGLVQAGGSLRLSCAASGNTLDWYAMGWYRQAPGKERELVAAISSAGSTSYADSVKGRFTISRDNAKNTVYLQMNSLKPEDTAVYYCNVDVYSKDANFQSFASEYDYWGQGTQVTVSS | low polyreactivity
13 | QVQLVESGGGLVQAGGSLRLSCAASGNTLRYYAMGWYRQAPGKERELVAAITRRGGSTYADSVKGRFTISRDNAKNTVYLQMNSLKPEDTAVYYCNRVLYDHSFPYNRGYDYWGQGTQVTVSS | high polyreactivity
14 | QVQLVESGGGLVQAGGSLRLSCAASGNTLYQYAMGWYRQAPGKERELVASITWSGSSTYYADSVKGRFTISRDNAKNTDDLQMNSLKPEDPAVYYCAAVVYYTFDYCGQGTQVTVSS | low polyreactivity
15 | QVQLVESGGGLVQAGGSLRLSCAASGNTVNFYAMGWYREAPGKERELVASITSGGGTNYADSVKGRFTISRDNAKNTVYLQMNSLKPEETAVYFCAAQFYYHFRFHCDWGQGTQVTVSS | low polyreactivity
16 | QVQLVESGGGLVQAGGSLRLSCAASGPIFGFNAMGWYRQAPGKERELVARISSVGSTNYADSVKGRFTISRDNAKNTVYLQMNSLKPEDTAVYYCAAKRYYTQSSYYLALYDYWGQGTQVTVSS | low polyreactivity
17 | QVQLVESGGGLVQAGGSLRLSCAASGPIFSDYTMGWYRQAPGKERELVAVISRRGTSTYYADSVKGRFTISRDNAKNTVDLQMNSLKPEDTAVYYCAADDNTYKFYYWGQGTQVTVSS | high polyreactivity
18 | QVQLVESGGGLVQAGGSLRLSCAASGQIFYTNTMGWYRQAPGKERELVAAINSGDRTYYADSVKGRFTISRDNAKNTVYLQMNSLKPEDTAVYYCAARNYATAVRYDYWGQGTQVTVSS | high polyreactivity
19 | QVQLVESGGGLVQAGGSLRLSCAASGQTFPFYTKGWYRQAPGKERELVGAISRRGGSTYYADSVKGRFTISRDNAKYTVYLQMKSLKPEDTAVYYCAADKYSWYDYWGQGTQVTVSS | low polyreactivity
20 | QVQLVESGGGLVQAGGSLRLSCAASGRFFKSYAMGWYRQAPGKERELVAAISRSDDTTYYADSVKGRFTISRDNAKNTVYLQMNSLKPEDTAVYYCAADTWRDGDDYWGQGTQVTVSS | low polyreactivity

Row | Sequence | polyreactivity (PSR sort gate)
21 | QVQLVESGGGLVQAGGSLRLSCAASGRICSQYAMGWYRQAPGKERELVAAISTSGDRTYYADSVKGRFTISRDNAQNSGYLQLNSLKPEDTAVYYCAKDGPYTYGRDIYEYWGQGTQVTVSS | low polyreactivity
22 | QVQLVESGGGLVQAGGSLRLSCAASGRICWYYGLGWYRQAPGKERELVAAITTGGSTYADSVKGRFTISRDNAKNTVYLQMNSLKPEDPAVYYCAADGSYVWRNGWTYFYWGQGTQVTVSS | high polyreactivity
23 | QVQLVESGGGLVQAGGSLRLSCAASGRIDRPYAMGLYRPAPGKERELVAAISRRGGSTYYADSVKGRFTISRDNAKNTVYLQMKSLKPEDTAVYYCAADYWYESLRLQGIQGLDYWGQGTQVTVSS | high polyreactivity
24 | QVQLVESGGGLVQAGGSLRLSCAASGRIFAANAMGWYRQAPGKERELVATISTGGGRTYYADSVKGRFTISRDNAKNTVYLQMNSLKPEDTAVYYCAASRGYLVPTRLAYYYWGQGTQVTVSS | high polyreactivity
25 | QVQLVESGGGLVQAGGSLRLSCAASGRIFADNAMGWYRQAPGKERELVADITYSGGSTYYADSVKGRFTISRDNAKNTVYLQMNSLKPEDTAVYSCAKQGVDYWGQGTQVTVSS | low polyreactivity
26 | QVQLVESGGGLVQAGGSLRLSCAASGRIFADYAMGWYRQAPGKERELVADIRQSGGRTYYADSVKGRFTISRDNAKNTVYFQINRLKPEDTAVYYCATDYGSWGDYSGKYDYWGQGTQVTVSS | low polyreactivity
27 | QVQLVESGGGLVQAGGSLRLSCAASGRIFADYAMGWYRQAPGKERELVADIRQSGGRTYYADSVKGRFTISRDNAKNTVYLQMNSLNPEDTAVYYCATDYGSWGDYSGKYDYWGQGTQVTVSS | low polyreactivity
28 | QVQLVESGGGLVQAGGSLRLSCAASGRIFAFNAMGWYRQAPGTESELVAAINWSGTTTYYADSVKGRFTISRDNAKNTVYLQMNSLKPEDTAVYYCAADVTFRGYAKYYYWGQGTQVTVSS | low polyreactivity
29 | QVQLVESGGGLVQAGGSLRLSCAASGRIFAFYAMGWYRQAPGKERELVAAISWSGGSTYYADSVKGRFTISRDNAKNTVYLQMNSLKPEDTAVYYCAAYRTRGSAYPYDYWGQGTQVTVSS | high polyreactivity
30 | QVQLVESGGGLVQAGGSLRLSCAASGRIFAFYTMGWYIQAPGKERELVAAITRRSGSTYYADSVKGRFTISRDNAKNTVYLQMNSLKPEDTAVYYCAVDTYIYTNRRYTKFDYWGQGTQVTVSS | low polyreactivity
31 | QVQLVESGGGLVQAGGSLRLSCAASGRIFAGNAMGWYRQAPGKERELVAVISKGGGRTYYADSVKGRFTFSRDNAKNTVYLQMNSLKPEDTAVYYCAVRTLQRGKHDLGVDYWGQGTHVTVSS | high polyreactivity
32 | QVQLVESGGGLVQAGGSLRLSCAASGRIFAGNTKGWYRQAPGKERELVAAITSSGGSTYYADSVKGRFTISRDNANTTVYLQMNSLKPEDTAVYYPIVYYVKYYYWGQGTQVTVSS | high polyreactivity
33 | QVQLVESGGGLVQAGGSLRLSCAASGRIFAGYALGWYRQAPGKERELVAAITFRSGTTYYADSVKGRFTISRDNAKNTVYLQMHSLKPEDTAVYYCAARWGPYAFTYVRTYDYWGQGTQVTGSS | low polyreactivity
34 | QVQLVESGGGLVQAGGSLRLSCAASGRIFAGYAMGWYRQAPGKERELVAAISKRGGSTYYADSVKGRFTISRDKAKNTVYLQMNSLKPEDTAVYYCAADTGYPNGQGQGYQNFGGYYWGQGTQVTVSS | high polyreactivity
35 | QVQLVESGGGLVQAGGSLRLSCAASGRIFAGYGMGWYRQAPGKERELVAAISSGGSTYYADSVKGRFTISRDNAKNTVYLQMNSLKPEDTAVYYCATDGQSVPDDYYQNVDYDYWGQGTQVTVSS | low polyreactivity
36 | QVQLVESGGGLVQAGGSLRLSCAASGRIFAHYAMGWYRQAPGKEMELFATISLSVGSTYYADSVKGRFTISRDNAKNTVYLQMNSLKPEDTSVYYCNATGYYATSHITYDYWGQVTQVTVSS | low polyreactivity
37 | QVQLVESGGGLVQAGGSLRLSCAASGRIFAKYAMGWYRQAPGTERELVAAISWGGGSTYYADSVKGRFTISRDNAKNTVYLQMNSLKPEDTAVYYCAARIPKQRDVRGSGMNYWGQGTQVTVSS | high polyreactivity
38 | QVQLVESGGGLVQAGGSLRLSCAASGRIFANNAMGWYRQAPGKERELVAAINWSGSRTYYADSVKGRFTISRDNAKNTVYLQMNSLNPEDTAVYYCAAVGRWGVTGSHHDAYDYWGQGTQVTVSS | high polyreactivity
39 | QVQLVESGGGLVQAGGSLRLSCAASGRIFANYAMGWYRQAPGKERELVAGITTGGSTYYADSVKGRFTISRDNAKNTVYLQMNSLKPVDTAVYYCAVRWRNRLYYYWGQGTQVTVSS | high polyreactivity
40 | QVQLVESGGGLVQAGGSLRLSCAASGRIFAPKAMGWYRQAPGKERELVATITWSGGSTYYADSVKGRFTISRDNAKNSVYLQMNSLNPEDTAVYYCAAETQIRLWSLQYRYYYWGQGTQVTVSS | low polyreactivity
